Measurements as given in patent US20030022265.

What was measured:
[1] = system: plasmid library of pADH-SteSubInv with random substitution of the 5th and 6th amino acids of cleavage region of α-factor
[2] = target: T1, fusion protein comprising Golgi recognition signal and transmembrane domain of yeast Golgi protein Ste13, cleavage site of yeast α-factor, and yeast invertase (UniProt P33894)
T1 sequence: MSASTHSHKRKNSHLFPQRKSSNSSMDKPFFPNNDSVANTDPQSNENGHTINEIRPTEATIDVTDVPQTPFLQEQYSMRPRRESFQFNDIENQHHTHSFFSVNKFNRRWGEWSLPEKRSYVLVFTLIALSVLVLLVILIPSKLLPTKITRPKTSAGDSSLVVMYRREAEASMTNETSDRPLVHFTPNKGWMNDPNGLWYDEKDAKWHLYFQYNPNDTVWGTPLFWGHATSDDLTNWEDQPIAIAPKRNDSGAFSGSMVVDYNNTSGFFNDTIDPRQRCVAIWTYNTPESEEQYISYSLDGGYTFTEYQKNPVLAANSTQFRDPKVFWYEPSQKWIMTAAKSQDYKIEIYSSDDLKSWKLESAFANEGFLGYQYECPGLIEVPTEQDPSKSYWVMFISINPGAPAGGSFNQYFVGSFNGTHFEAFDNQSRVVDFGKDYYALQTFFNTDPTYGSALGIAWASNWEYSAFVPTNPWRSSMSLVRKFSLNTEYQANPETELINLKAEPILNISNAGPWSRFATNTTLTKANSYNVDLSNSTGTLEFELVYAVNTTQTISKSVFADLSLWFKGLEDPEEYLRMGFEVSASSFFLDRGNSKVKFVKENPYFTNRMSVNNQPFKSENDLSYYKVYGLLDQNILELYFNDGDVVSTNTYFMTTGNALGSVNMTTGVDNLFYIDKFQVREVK

[3] = system: product of plasmid pADH-SteInv

Substance: Kex2
- residues found at the randomised substrate positions in colonies grown on sucrose plates [1]: Various amino acids such as D, E, A, V, P, S, Q, K, R, and H were found at the 6th amino acid, while, solely R was found at the 5th amino acid
- viability of cotransformed suc2, kex2 mutant yeast on sucrose-containing plate [2]: transformants of test group 1 were survived both on glucose-containing and sucrose-containing plates
- viability of cotransformed suc2, kex2 mutant yeast on sucrose-containing plate [3]: transformants of test groups 2 to 4 were not able to grow on sucrose plates
